B1: GTRAP3-18 (glutamate transporter EAAC1 associated protein), full-length (other)
chain: MDVNLAPLRAWDDFFPGSDRFARPDFRDISKWNNRVVSNLLYYQTNYLVVAAMMISVVGFLSPFNMILGGIIVVLVFTGFVWAAHNKDILRRMKKQYPTAFVMVVMLASYFLISMFGGVMVFVFGITFPLLLMFIHASLRLRNLKNKLENKMEGIGLKKTPMGIILDALEQQEDSINKFADYISKARE
notes: Used for native GTRAP3-18 of rat brain and tissue homogenates, for 'purified GTRAP3-18 protein' and for GTRAP3-18 expressed where no tag is stated; also called rat JWA protein homologue
B2: amino-terminus c-myc tagged GTRAP3-18 (other)
chain: B1 chain
notes: Expressed in HEK293 (also COS-7 and C6 glioma) cells; also called c-myc-GTRAP3-18; not shown: c-myc tag at the amino-terminus

Tests used:
[1] = target: T1, GLT-1 glutamate transporter (rat, UniProt P31596 1-573); assay: co-immunoprecipitation from rat brain extract, Western blotting
T1 construct: whole, on cells; Native protein in solubilized rat brain
T1 sequence (P31596 whole entry): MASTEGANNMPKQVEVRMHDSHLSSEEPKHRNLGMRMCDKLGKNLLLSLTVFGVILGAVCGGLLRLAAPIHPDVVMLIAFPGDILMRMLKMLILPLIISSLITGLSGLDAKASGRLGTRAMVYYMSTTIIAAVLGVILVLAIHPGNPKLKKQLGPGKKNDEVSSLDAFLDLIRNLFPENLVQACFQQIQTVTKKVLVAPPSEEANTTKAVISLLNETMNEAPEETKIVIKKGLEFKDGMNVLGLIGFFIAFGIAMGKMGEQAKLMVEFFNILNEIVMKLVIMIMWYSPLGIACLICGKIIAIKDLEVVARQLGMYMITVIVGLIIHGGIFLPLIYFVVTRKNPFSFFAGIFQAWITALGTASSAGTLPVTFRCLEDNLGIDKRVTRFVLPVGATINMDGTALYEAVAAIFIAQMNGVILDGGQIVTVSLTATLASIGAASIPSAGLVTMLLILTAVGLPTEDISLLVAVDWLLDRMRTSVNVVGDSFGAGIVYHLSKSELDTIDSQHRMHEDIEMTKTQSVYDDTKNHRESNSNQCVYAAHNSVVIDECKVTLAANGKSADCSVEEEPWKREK

[2] = target: T2, GLAST glutamate transporter (rat, UniProt P24942 1-543); assay: as above
T2 construct: whole, on cells; Native protein in solubilized rat brain
T2 sequence (looked up): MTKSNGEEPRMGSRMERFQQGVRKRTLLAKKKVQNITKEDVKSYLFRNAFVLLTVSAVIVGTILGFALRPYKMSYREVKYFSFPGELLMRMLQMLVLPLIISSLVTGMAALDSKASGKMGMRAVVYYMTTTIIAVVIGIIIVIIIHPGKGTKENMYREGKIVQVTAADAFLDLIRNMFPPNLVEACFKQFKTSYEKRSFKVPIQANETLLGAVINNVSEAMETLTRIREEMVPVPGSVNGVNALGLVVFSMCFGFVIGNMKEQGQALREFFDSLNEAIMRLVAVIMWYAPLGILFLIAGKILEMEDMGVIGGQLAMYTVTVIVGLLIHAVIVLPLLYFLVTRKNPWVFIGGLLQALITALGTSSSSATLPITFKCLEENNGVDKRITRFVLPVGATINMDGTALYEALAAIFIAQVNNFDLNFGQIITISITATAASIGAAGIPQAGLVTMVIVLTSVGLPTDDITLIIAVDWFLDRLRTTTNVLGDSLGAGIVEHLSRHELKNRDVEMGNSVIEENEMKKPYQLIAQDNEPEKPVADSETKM

[3] = target: T3, EAAT4, full-length glutamate transporter (rat, UniProt O35921 1-561); assay: as above
T3 construct: whole, on cells; tested from detergent lysates; also called rEAAT4; rat EAAT4
T3 sequence (looked up): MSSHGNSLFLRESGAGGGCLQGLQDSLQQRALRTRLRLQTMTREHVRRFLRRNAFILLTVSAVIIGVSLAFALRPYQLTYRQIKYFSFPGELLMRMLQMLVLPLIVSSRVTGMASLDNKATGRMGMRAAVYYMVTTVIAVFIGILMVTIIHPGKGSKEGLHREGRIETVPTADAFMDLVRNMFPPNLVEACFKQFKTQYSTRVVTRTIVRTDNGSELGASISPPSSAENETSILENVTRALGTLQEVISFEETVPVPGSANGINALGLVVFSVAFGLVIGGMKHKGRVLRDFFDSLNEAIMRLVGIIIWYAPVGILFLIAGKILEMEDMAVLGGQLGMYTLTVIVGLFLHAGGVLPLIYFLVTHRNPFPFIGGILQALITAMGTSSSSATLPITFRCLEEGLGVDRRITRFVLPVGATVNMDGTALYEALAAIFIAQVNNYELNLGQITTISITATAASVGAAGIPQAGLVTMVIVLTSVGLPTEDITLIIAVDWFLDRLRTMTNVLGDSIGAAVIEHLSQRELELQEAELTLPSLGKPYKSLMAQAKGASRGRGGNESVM

[4] = target: the molecule itself; assay: immunoblot of tissue homogenates and purified protein
[5] = target: T4, truncated EAAC1 lacking the interacting carboxy-terminal domain (lacking the last 93 amino acids) (UniProt P51907 1-430); assay: co-immunoprecipitation from transfected HEK293 cells
T4 construct: domain: EAAC1 lacking the last 93 amino acids
T4 sequence (looked up): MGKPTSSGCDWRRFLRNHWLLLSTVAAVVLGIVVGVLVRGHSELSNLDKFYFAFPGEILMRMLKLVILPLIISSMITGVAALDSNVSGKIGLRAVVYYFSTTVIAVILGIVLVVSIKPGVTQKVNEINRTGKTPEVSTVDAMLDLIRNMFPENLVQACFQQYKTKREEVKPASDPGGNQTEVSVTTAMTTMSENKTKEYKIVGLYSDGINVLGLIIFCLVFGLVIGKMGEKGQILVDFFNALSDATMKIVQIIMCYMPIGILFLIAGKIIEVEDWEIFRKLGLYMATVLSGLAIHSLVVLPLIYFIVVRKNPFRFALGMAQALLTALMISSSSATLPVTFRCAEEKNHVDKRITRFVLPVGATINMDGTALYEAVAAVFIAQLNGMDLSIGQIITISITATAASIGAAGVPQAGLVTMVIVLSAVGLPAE
Experimental: (§1) Immunoprecipitation experiments were performed to test if EAAC1 and GTRAP3-18 interact in vivo. This was first examined in transfected HEK293 cells using amino-terminus c-myc tagged GTRAP3-18. EAAC1 is co-immunoprecipitated with c-myc-GTRAP3-18 in the cell extract prepared from co-expression cells but not from EAAC1 or c-myc-GTRAP3-18 single expression cells. […] This interaction was specific, since EAAT4, another neuronal glutamate transporter subtype, is not immunoprecipitated with c-myc-GTRAP3-18. Identical results are obtained using COS-7 and C6 glioma cell lines.

[6] = target: T3, EAAT4, full-length glutamate transporter; assay: as above
Experimental: as §1

Binder	binding result [1]	binding result [2]	binding result [3]	binding result [4]	binding result [5]	binding result [6]
B1	no binding	no binding	no binding	binds	–	–
B2	–	–	–	–	no binding	no binding

From US6808893 (Johns Hopkins, dated 2004)
